# Source: patent US20260258083A1 (Amgen, published 2026)
# Where no end group is shown, it is not given here. Side-chain parts run from the residue outwards. [ ]: non-standard residue; d: D form. thiosuccinimide (maleimide) = thiosuccinimide linkage from the Cys thiol to the maleimide of 4-arm 5 kDa PEG; thiosuccinimide = thiosuccinimide linkage joining the Cys side chain to 4-arm 5 kDa PEG; pGlu = O=C1CC[C@@H](C(=O)O)N1; disulfide = not defined here; MAL = maleimide
# Columns and labels:
# [1] = biological target: T1, FLT3xCD3 TCE SEQ ID NO 93; assay: kinetics, Table 5
# T1 construct: Single-chain scFv-scFv-scFc T cell engager; also called FLT3×CD3ε TCE; FLT3_7 A8xCD3-scFc Bispecific HLE molecule
# Experimental: (§1) 1. Preparation of NHS-activated sepharose fast-flow beads: [0565] 2. Fast flow sepharose suspension in 100% IPA, washed twice with milliQ H20, mild centrifugation to pool beads in between wash steps. [0566] 3. […] 4. Added 80 mM PDEA to activate the resin for thiol exchange, 10 mins, r.t. [0568] 5. […] 6. Added 30 μg/mL of binding peptide, […] […] (SEQ ID NO: 300), reaction for 1 hr to functionalize resin. [0570] 7. Quench with 10 mM L-Cys for 1 hour. [0571] 8.
# [2] = biological target: T1, FLT3xCD3 TCE SEQ ID NO 93; assay: KinExA association kinetics, Table 5
# Experimental: as §1
# [3] = biological target: T1, FLT3xCD3 TCE SEQ ID NO 93; assay: KinExA equilibrium in solution, Table 5; single reference peptide QDGNEEMG (original CD3ε epitope)
# Experimental: as §1
# [4] = biological target: T1, FLT3xCD3 TCE SEQ ID NO 93; assay: SPR solution competition, peptide titrated into fixed TCE, free TCE read on peptide capture surface
# Description: (§2) For the binding assessment, Individual binding isotherms were constructed by titrating the respective peptide of interest into a fixed concentration of TCE-containing solution in PBST. At least 4 hrs equilibration time were allotted (r.t.) prior to analysis by SPR. For the analysis, a calibration curve was first constructed of the TCE analyte being assessed. […] The ‘free’ TCE concentration measured was plotted as a function of log peptide concentration and fit using non-linear regression analysis to a 4 parameter logistic function to derive an IC50.
# [5] = biological target: T1, FLT3xCD3 TCE SEQ ID NO 93; assay: KinExA equilibrium in solution, Table 5
# Experimental: as §1
# [6] = biological target: T1, FLT3xCD3 TCE SEQ ID NO 93; assay: Table 5, ratio to a reference peptide that the table does not name; set-up: reference not given here
# [7] = biological target: CDH3-CD3-MSLN-CD3 TCE (SEQ ID NO 255); assay: SPR, immobilised peptide, bivalent analyte model, fast component
# CDH3-CD3-MSLN-CD3 TCE (SEQ ID NO 255), sequence (chain, as listed by the source): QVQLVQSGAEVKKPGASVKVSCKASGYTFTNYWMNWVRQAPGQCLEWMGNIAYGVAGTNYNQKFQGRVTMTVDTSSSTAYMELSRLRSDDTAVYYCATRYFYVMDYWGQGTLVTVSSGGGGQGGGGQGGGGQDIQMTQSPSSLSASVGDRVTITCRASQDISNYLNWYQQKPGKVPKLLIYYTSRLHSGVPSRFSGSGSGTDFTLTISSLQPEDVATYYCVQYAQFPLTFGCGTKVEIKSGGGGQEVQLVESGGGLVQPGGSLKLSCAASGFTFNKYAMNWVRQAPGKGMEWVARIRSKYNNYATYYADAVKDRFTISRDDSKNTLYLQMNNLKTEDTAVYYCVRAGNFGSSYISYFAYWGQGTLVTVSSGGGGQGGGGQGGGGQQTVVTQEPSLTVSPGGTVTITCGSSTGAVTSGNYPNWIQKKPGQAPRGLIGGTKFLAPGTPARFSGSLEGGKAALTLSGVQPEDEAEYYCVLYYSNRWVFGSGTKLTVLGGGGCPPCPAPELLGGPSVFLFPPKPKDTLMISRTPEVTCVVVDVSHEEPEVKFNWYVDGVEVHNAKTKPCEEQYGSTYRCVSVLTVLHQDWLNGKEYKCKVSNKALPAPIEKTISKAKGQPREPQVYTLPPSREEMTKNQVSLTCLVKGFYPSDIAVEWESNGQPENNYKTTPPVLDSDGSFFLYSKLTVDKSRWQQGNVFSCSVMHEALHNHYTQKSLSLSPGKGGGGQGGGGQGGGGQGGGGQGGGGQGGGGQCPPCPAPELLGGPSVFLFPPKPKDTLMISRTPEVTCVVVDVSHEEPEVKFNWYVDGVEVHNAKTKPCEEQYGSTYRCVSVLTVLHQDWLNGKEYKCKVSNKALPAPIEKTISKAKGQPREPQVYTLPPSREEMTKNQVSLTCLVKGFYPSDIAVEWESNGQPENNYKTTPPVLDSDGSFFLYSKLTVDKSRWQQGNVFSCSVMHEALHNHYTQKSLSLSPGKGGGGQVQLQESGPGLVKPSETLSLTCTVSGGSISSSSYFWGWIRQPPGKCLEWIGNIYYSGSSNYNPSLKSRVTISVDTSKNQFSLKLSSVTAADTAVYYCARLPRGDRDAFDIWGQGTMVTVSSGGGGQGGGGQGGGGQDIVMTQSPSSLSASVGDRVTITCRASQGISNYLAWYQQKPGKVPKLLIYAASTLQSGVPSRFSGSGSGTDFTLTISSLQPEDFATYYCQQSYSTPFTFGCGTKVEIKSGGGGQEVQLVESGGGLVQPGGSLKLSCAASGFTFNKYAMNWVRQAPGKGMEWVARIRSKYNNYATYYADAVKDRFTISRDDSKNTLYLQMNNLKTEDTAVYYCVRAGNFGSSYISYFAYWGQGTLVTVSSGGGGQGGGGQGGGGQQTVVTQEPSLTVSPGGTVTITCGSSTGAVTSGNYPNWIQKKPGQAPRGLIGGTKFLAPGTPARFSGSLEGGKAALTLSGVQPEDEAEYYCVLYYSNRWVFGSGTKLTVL
# [8] = biological target: CDH3-CD3-MSLN-CD3 TCE (SEQ ID NO 255); assay: SPR, peptide immobilised on CM5 (PDEA), TCE as analyte, steady state affinity
# [9] = biological target: T1, FLT3xCD3 TCE SEQ ID NO 93; assay: SPR, peptide immobilised on CM5 (PDEA), TCE as analyte, kinetic 1:1 fit
# [10] = biological target: T2, DLL3xCD3 TCE SEQ ID NO 104; assay: as above
# T2 construct: Single-chain T cell engager; also called DLL3×CD3ε TCE
# [11] = biological target: T3, Steap 1xCD3 TCE SEQ ID NO 373 + 374 + 375; assay: as above
# T3 construct: also called STEAP1×CD3e heterodimeric TCE; Ab-A1 Xmab2+1
# [12] = biological target: T3, Steap 1xCD3 TCE SEQ ID NO 373 + 374 + …; assay: SPR solution competition, peptide titrated into fixed TCE, free TCE read on peptide capture surface
# Description: as §2
# [13] = biological target: T1, FLT3xCD3 TCE SEQ ID NO 93; assay: KinExA equilibrium in solution, KD relative to peptide concentration, TCE 250 pM
# [14] = biological target: T2, DLL3xCD3 TCE SEQ ID NO 104; assay: as above
# [15] = biological target: CDH3-CD3-MSLN-CD3 TCE (SEQ ID NO 255); assay: as above
# [16] = biological target: T3, Steap 1xCD3 TCE SEQ ID NO 373 + 374 + …; assay: KinExA equilibrium in solution, KD relative to peptide concentration, TCE 333 pM
# Experimental: 1. […] 2. […] 3. […] 4. Added 80 mM PDEA to activate the resin for thiol exchange, 10 mins, r.t. […] 5. […] 6. […] 7. […] 8.
# [17] = biological target: T1, FLT3xCD3 TCE SEQ ID NO 93; assay: KinExA equilibrium in solution, KD relative to peptide concentration, TCE 125 pM
binder,measurement,setting,value
QDGNEEMG,koff,[1],0.0248 s⁻¹
same,kon,[2],692000 M⁻¹ s⁻¹
same,Kd,[3],35.8 nM
same,IC50,[4],133 nM
QDGNEEMGGMEENGDQ (how the reversed half is joined is not explained) [QDGNEEMG-GMEENGDQ],koff,[1],0.00471 s⁻¹
same,Kd,[5],9.88 nM
same,kon,[2],476000 M⁻¹ s⁻¹
same,fold-Kd,[6],3.62 fold
same,fold-koff,[6],0.19 fold
same,fold-kon,[6],0.69 fold
[pGlu]DGNEELKGC (also called ID 14974) [pGlu-DGNEELKGC],koff,[7],0.0212 s⁻¹
same,kon,[7],2.42e+06 M⁻¹ s⁻¹
same,Kd,[8],13.3 nM
same,Kd,[5],0.142 nM
same,Kd,[9],1.28 nM
same,koff,[9],0.0024 s⁻¹
same,kon,[9],1.88e+06 M⁻¹ s⁻¹
same,Kd,[10],1.3 nM
same,koff,[10],0.00279 s⁻¹
same,kon,[10],2.14e+06 M⁻¹ s⁻¹
same,Kd,[11],2.57 nM
same,koff,[11],0.00514 s⁻¹
same,kon,[11],2e+06 M⁻¹ s⁻¹
same,fold-Kd,[6],252 fold
same,IC50,[4],2.7 nM
same,IC50,[12],13.4 nM
"[pGlu]DGNEELKGK([acetamide‑thioether-mPEG 20 kDa])-OH (also: Lys 10 side chain linked via thioether (acetamide) to linear 20 kDa mPEG, TCE masking molecule) [73136-2]",Kd,[13],0.173 nM
"[pGlu]DGEEELKGC([thiosuccinimide-4‑arm PEG 20 kDa])-NH2 (also: 4-arm PEG conjugate, number of peptide copies not given here, TCE masking molecule) [79676-1]",Kd,[14],12.8 nM
"[pGlu]DGEEELKGC([thiosuccinimide (maleimide)-4‑arm PEG 5 kDa])-NH2 (also: 4-arm PEG conjugate, number of peptide copies not given here, TCE masking molecule) [79677-1]",Kd,[14],4.69 nM
[pGlu]DGEEELKGC [pGlu-DGEEELKGC],koff,[7],0.236 s⁻¹
same,kon,[7],1.29e+06 M⁻¹ s⁻¹
same,Kd,[8],72.5 nM
same,Kd,[9],7.3 nM
same,koff,[9],0.0295 s⁻¹
same,kon,[9],4.04e+06 M⁻¹ s⁻¹
same,Kd,[10],20.5 nM
same,koff,[10],0.0542 s⁻¹
same,kon,[10],2.64e+06 M⁻¹ s⁻¹
same,Kd,[11],27.4 nM
same,koff,[11],0.0834 s⁻¹
same,kon,[11],3.04e+06 M⁻¹ s⁻¹
same,IC50,[4],14.7 nM
same,IC50,[12],28.6 nM
[pGlu]DGIEELKGC (Position 1 is written E for pGlu) [pGlu-DGIEELKGC],IC50,[4],3.6 nM
same,IC50,[12],11.6 nM
[pGlu]DGSEELKGC (Position 1 is written E for pGlu) [pGlu-DGSEELKGC],IC50,[4],8.2 nM
same,IC50,[12],16.7 nM
[pGlu]DGTEELKGC (Position 1 is written E for pGlu) [pGlu-DGTEELKGC],Kd,[9],8.88 nM
same,koff,[9],0.0285 s⁻¹
same,kon,[9],3.21e+06 M⁻¹ s⁻¹
same,Kd,[10],14.8 nM
same,koff,[10],0.0713 s⁻¹
same,kon,[10],4.81e+06 M⁻¹ s⁻¹
same,Kd,[11],35.2 nM
same,koff,[11],0.0734 s⁻¹
same,kon,[11],2.09e+06 M⁻¹ s⁻¹
same,IC50,[4],39.7 nM
same,IC50,[12],59.9 nM
[pGlu]DGVEELKGC (Position 1 is written E for pGlu) [pGlu-DGVEELKGC],IC50,[4],9 nM
same,IC50,[12],26.4 nM
QDGNEEMGQDGNEEMG [QDGNEEMG-QDGNEEMG],koff,[1],0.00586 s⁻¹
same,Kd,[5],11 nM
same,kon,[2],533000 M⁻¹ s⁻¹
same,fold-Kd,[6],3.25 fold
same,fold-koff,[6],0.24 fold
same,fold-kon,[6],0.77 fold
"[pGlu]DGNEELKGC([thiosuccinimide-4‑arm PEG 20 kDa])-NH2 (also: 4-arm PEG conjugate, number of peptide copies not given here) [79674-1]",Kd,[14],0.0372 nM
same,Kd,[15],0.0638 nM
"[pGlu]DGNEELKGC-NH2 (SMILES CC(C)C[C@H](NC(=O)[C@H](CCC(=O)O)NC(=O)[C@H](CCC(=O)O)NC(=O)[C@H](CC(N)=O)NC(=O)CNC(=O)[C@H](CC(=O)O)NC(=O)[C@@H]1CCC(=O)N1)C(=O)N[C@@H](CCCCN)C(=O)NCC(=O)N[C@@H](CS)C(N)=O, Unconjugated peptide (Conjugate column: N/A)) [pEDGNEELKGC-NH2]",Kd,[16],1.59 nM
"[pGlu]DGNEELKGC([thiosuccinimide-4‑arm PEG 5 kDa])-NH2 (also: 4-arm PEG conjugate, number of peptide copies not given here) [79675-1]",Kd,[14],0.0623 nM
[pGlu]DGNEELKGC([thiosuccinimide-4‑arm PEG 5 kDa])-OH [72103-1],Kd,[17],0.0777 nM
QDGNEEMGKQDGNEEMG [QDGNEEMG-K-QDGNEEMG],koff,[1],0.00497 s⁻¹
same,Kd,[5],8.05 nM
same,kon,[2],448000 M⁻¹ s⁻¹
same,fold-Kd,[6],2.77 fold
same,fold-koff,[6],0.28 fold
same,fold-kon,[6],0.56 fold
QDGNEEMGK [QDGNEEMG-K],koff,[1],0.0179 s⁻¹
same,Kd,[5],22.3 nM
same,kon,[2],806000 M⁻¹ s⁻¹
[pGlu]DGNEEMGKGMEENGDQC (Position 1 is written E for pE) [pGlu-DGNEEMGKGMEENGDQC],Kd,[5],0.176 nM
same,fold-Kd,[6],203 fold
same,IC50,[4],2.4 nM
"QDGNEEMGKGMEENGDQC(4‑arm PEG 20 kDa) (also: four peptides on one 4-arm PEG, Peptide-PEG conjugate with four peptides on one PEG; also called CD3ε PepPOL, v1 (20 kDa); 4-arm 20 kDa PepPOL conjugate) [(QDGNEEMGKGMEENGDQC)4 -PEG(20 kDa)]",koff,[1],0.0047 s⁻¹
same,Kd,[5],22 nM
same,kon,[2],199000 M⁻¹ s⁻¹
same,fold-kon,[6],1.14 fold
"[pGlu]DGNEEMGKGMEENGDQC([disulfide-4‑arm PEG 20 kDa]) (reading uncertain; also: four peptides on one 4-arm PEG, printed as pGlu-DGNEEMGKGMEENGDQC, also called CD3ε PepPOL, v2; Pep-PEG v2) [(pGlu-DGNEEMGKGMEENGDQC)4 -PEG(20 kDa)]",koff,[1],0.00195 s⁻¹
same,Kd,[5],0.176 nM
same,kon,[2],1.12e+07 M⁻¹ s⁻¹
same,fold-Kd,[6],203 fold
same,fold-koff,[6],0.01 fold
same,fold-kon,[6],16.2 fold
[pGlu]DGNEELKGC([MAL-PEG 10 kDa]) (also: four peptides per PEG) [(pGlu-DGNEELKGC)4 -MAL PEG(10 kDa)],Kd,[5],0.142 nM
[pGlu]DGNEELKGC([MAL-PEG 5 kDa]) (also: four peptides per PEG) [(pGlu-DGNEELKGC)4 -MAL PEG(5 kDa)],Kd,[5],0.142 nM
[pGlu]DGNEELKPGC (Position 1 is written E for pGlu) [pGlu-DGNEELKPGC],IC50,[4],5.2 nM
[pGlu]DGNEELPKPGC (Position 1 is written E for pGlu) [pGlu-DGNEELPKPGC],IC50,[4],2.7 nM
